Experimental data reported in paper PMC5242468.

Experiments:
[1] = target: β-Glucuronidase (GusA) (E. coli MG1655), P05804; experiment: SEC; after 65°C and pH 5 for 20 min (high temperature and acidic pH); data not shown; conditions: remark: other sources report otherwise
[2] = target: β-Glucuronidase (GusA) (E. coli MG1655), P05804; experiment: SEC; gel filtration of the freshly purified enzymes against reference proteins (thyroglobulin, aldolase, albumin, ovalbumin, chymotrypsinogen A); results name a Superose 12 10/300 column, methods name a ZORBAX GF-250 HPLC column, 130 mM NaCl/20 mM Na2HPO4 pH 7.0, 23°C; conditions: remark: other sources report otherwise

stoichiometry N [1]: 4
stoichiometry N [2]: 4
B1: β-Glucuronidase (GusA), P05804 1-603 (enzyme)
chain: MLRPVETPTREIKKLDGLWAFSLDRENCGIDQRWWESALQESRAIAVPGSFNDQFADADIRNYAGNVWYQREVFIPKGWAGQRIVLRFDAVTHYGKVWVNNQEVMEHQGGYTPFEADVTPYVIAGKSVRITVCVNNELNWQTIPPGMVITDENGKKKQSYFHDFFNYAGIHRSVMLYTTPNTWVDDITVVTHVAQDCNHASVDWQVVANGDVSVELRDADQQVVATGQGTSGTLQVVNPHLWQPGEGYLYELCVTAKSQTECDIYPLRVGIRSVAVKGEQFLINHKPFYFTGFGRHEDADLRGKGFDNVLMVHDHALMDWIGANSYRTSHYPYAEEMLDWADEHGIVVIDETAAVGFNLSLGIGFEAGNKPKELYSEEAVNGETQQAHLQAIKELIARDKNHPSVVMWSIANEPDTRPQGAREYFAPLAEATRKLDPTRPITCVNVMFCDAHTDTISDLFDVLCLNRYYGWYVQSGDLETAEKVLEKELLAWQEKLHQPIIITEYGVDTLAGLHSMYTDMWSEEYQCAWLDMYHRVFDRVSAVVGEQVWNFADFATSQGILRVGGNKKGIFTRDRKPKSAAFLLQKRWTGMNFGEKPQQGGKQ
